Test results from PMC8075905, “Mapping the binding sites of antibodies utilized in programmed cell death ligand-1 predictive immunohistochemical assays for use with immuno-oncology therapies” (Modern Pathology, 2019).

B1: recombinant 22C3 antibody (r22C3), mouse IgG (antibody, V domains shown)
VH: QVHLQQSGAELAKPGASVKMSCKASGYTFTSYWIHWIKQRPGQGLEWIGYINPSSGYHEYNQKFIDKATLTADRSSSTAYMHLTSLTSEDSAVYYCARSGWLIHGDYYFDFWGQGTTLVTVS
VL: DIVMSQSPSSLAVSAGEKVTMTCKSSQSLLHTSTRKNYLAWYQQKPGQSPKLLIYWASTRESGVPDRFTGSGSGTDFTLTISSVQAEDLAVYYCKQSYDVVTFGAGTKLEIK
notes: Mouse IgG; source: CHO-EBNA-GS cells, transient expression, purified
B2: recombinant 28-8 antibody (r28-8), rabbit IgG (antibody, V domains shown)
VH: CLSVEESGGRLVTPGTPLTLTCTASGFTITNYHMFWVRQAPGKGLEWIGVITSSGIGSSSTTYYATWAKGRFTISKTSTTVNLRITSPTTEDTATYFCARDYFTNTYYALDIWGPGTLVTVSS
VL: ALVMTQTPSSTSTAVGGTVTIKCQASQSISVYLAWYQQKPGQPPKLLIYSASTLASGVPSRFKGSRSGTEYTLTISGVQREDAATYYCLGSAGSFGGGTEVVVK
notes: Rabbit IgG; source: CHO-EBNA-GS cells, transient expression, purified

Tests used:
[1] = target: T1, His-tagged extracellular domain of PD-L1 (residues 19-238) (Homo sapiens (Human)., UniProt Q9NZQ7, N-linked glycosylation (sites N35, N192, N200, N219)); experiment: SPR; Biacore T200, 25 °C, PBS (10 mM sodium phosphate, 154 mM NaCl, pH 7.4) with 0.05% Tween-20; 90 RU r22C3 captured on anti-mouse antibody on a C1 chip; PD-L1 extracellular domain injected (top 110 nM, two-fold dilutions); 1:1 Langmuir model; conditions: both partners purified
T1 construct: programmed cell death ligand-1 (PD-L1), human, extracellular domain, residues 19-238 of the 290-residue protein; The limits are stated for the SPR experiment; also called PD-L1 extracellular domain; recombinant PD-L1; source: provided by MedImmune, Cambridge, UK; purified
T1 sequence (Q9NZQ7 19-238): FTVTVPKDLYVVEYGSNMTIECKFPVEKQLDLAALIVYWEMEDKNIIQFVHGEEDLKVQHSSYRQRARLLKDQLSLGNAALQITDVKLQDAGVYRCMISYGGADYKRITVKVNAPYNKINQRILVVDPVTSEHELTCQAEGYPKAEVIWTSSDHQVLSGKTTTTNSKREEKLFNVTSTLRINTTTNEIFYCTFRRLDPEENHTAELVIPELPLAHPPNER

[2] = target: T2, Ext4 PD-L1-GFP, a PD-L1 mutant with residues 284-290 deleted (Homo sapiens, UniProt Q9NZQ7, residues 284–290 deleted); experiment: immunostaining of cells or tissue; confocal immunofluorescence microscopy of HEK293 cells expressing PD-L1-GFP constructs, stained with r22C3 and r28-8; protocol in Supplementary Appendix B; conditions: one partner purified
T2 construct: The label 'Ext4' is probably a slip for 'Int4'; source: HEK293 cells, expressed, on cells
T2 sequence (Q9NZQ7 19-283, stated change not applied): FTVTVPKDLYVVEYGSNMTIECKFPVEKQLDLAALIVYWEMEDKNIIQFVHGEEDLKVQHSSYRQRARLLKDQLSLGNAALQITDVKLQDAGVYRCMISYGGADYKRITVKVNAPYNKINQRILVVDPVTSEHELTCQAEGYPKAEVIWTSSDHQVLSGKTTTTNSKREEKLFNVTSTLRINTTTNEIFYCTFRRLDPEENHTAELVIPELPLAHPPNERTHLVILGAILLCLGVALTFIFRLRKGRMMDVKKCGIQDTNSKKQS

[3] = target: T1, His-tagged extracellular domain of …; experiment: SPR; Biacore T200, 25 °C, PBS pH 7.4 with 0.05% Tween-20; 90 RU r22C3 captured, PD-L1 extracellular domain injected at 110 nM, then r28-8 injected over the r22C3-PD-L1 complex (top 33 nM, two-fold dilutions); 1:1 Langmuir model; conditions: both partners purified

Binder | Kd [1] | binding result [2] | Kd [3]
B1 | < 0.04 nM | binds | –
B2 | – | binds | < 0.04 nM
